These results are taken from patent US20210130436A1.

One experiment concerns the target CD28 (human) (UniProt P10747). In words: cell-based or functional assay.
A further experiment deals with PD-L1 (human) (UniProt Q9NZQ7). Description: cell-based or functional assay.
Sequence of PD-L1 (human) (Q9NZQ7 19-290): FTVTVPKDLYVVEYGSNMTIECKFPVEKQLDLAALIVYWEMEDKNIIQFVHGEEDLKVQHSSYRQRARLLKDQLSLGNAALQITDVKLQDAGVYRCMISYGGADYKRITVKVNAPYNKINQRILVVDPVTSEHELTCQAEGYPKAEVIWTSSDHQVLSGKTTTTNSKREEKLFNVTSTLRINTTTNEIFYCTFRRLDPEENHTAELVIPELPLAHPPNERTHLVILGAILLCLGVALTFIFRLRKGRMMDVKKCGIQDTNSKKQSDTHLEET

As for “variant CD80 IgV-Fc (inert) A26E/E35D/M47L/L85Q (Fc fusion)”, in the experiment with CD28 (human), the IL-2-luciferase RLU, Jurkat + CHO/OKT3/PD-L1 aAPC, 0.6 nM was found to be 509 RLU; the IL-2-luciferase RLU, Jurkat + CHO/OKT3/PD-L1 aAPC, 1.9 nM stood at 618 RLU; the IL-2-luciferase RLU, Jurkat + CHO/OKT3/PD-L1 aAPC, 5.6 nM is 886 RLU; the IL-2-luciferase RLU, Jurkat + CHO/OKT3/PD-L1 aAPC, 16.7 nM stood at 1380 RLU. Further, in the experiment with CD28 (human), the IL-2-luciferase RLU, Jurkat + CHO/OKT3/PD-L1 aAPC, 50 nM is 2000 RLU; the IL-2-luciferase RLU, Jurkat + CHO/OKT3 aAPC (no PD-L1), 5.6 nM was 458 RLU; the IL-2-luciferase RLU, Jurkat + CHO/OKT3 aAPC (no PD-L1), 16.7 nM was 415 RLU; the IL-2-luciferase RLU, Jurkat + CHO/OKT3 aAPC (no PD-L1), 50 nM was determined as 432 RLU. Besides, in the experiment with PD-L1 (human), the IL-2 release, primary T cells; K562/OKT3/PD-L1; 1 nM worked out at 72; the IL-2 release, primary T cells; K562/OKT3/PD-L1; 10 nM is 268; the IL-2 release, primary T cells; K562/OKT3/PD-L1; 100 nM amounted to 1460.

“variant CD80 IgV-Fc (inert) E23G/A26S/E35D/T62N/A71D/L72V/L85M (Fc fusion)”: in the experiment with CD28 (human), the IL-2-luciferase RLU, Jurkat + CHO/OKT3/PD-L1 aAPC, 0.6 nM was determined as 524 RLU; the IL-2-luciferase RLU, Jurkat + CHO/OKT3/PD-L1 aAPC, 5.6 nM was 659 RLU; the IL-2-luciferase RLU, Jurkat + CHO/OKT3/PD-L1 aAPC, 16.7 nM amounted to 689 RLU; the IL-2-luciferase RLU, Jurkat + CHO/OKT3/PD-L1 aAPC, 50 nM came to 695 RLU. In the experiment with CD28 (human), the IL-2-luciferase RLU, Jurkat + CHO/OKT3 aAPC (no PD-L1), 5.6 nM stood at 566 RLU; the IL-2-luciferase RLU, Jurkat + CHO/OKT3 aAPC (no PD-L1), 16.7 nM came to 560 RLU; the IL-2-luciferase RLU, Jurkat + CHO/OKT3 aAPC (no PD-L1), 50 nM was found to be 606 RLU. In the experiment with PD-L1 (human), the IL-2 release, primary T cells; K562/OKT3/PD-L1; 100 nM amounted to 102.

In the case of “variant CD80 IgV-Fc (inert) E35D (Fc fusion)”, in the experiment with CD28 (human), the IL-2-luciferase RLU, Jurkat + CHO/OKT3/PD-L1 aAPC, 0.6 nM was 456 RLU; the IL-2-luciferase RLU, Jurkat + CHO/OKT3/PD-L1 aAPC, 1.9 nM stood at 465 RLU; the IL-2-luciferase RLU, Jurkat + CHO/OKT3/PD-L1 aAPC, 5.6 nM came out at 625 RLU; the IL-2-luciferase RLU, Jurkat + CHO/OKT3/PD-L1 aAPC, 16.7 nM is 995 RLU. In the experiment with CD28 (human), the IL-2-luciferase RLU, Jurkat + CHO/OKT3/PD-L1 aAPC, 50 nM was 1610 RLU; the IL-2-luciferase RLU, Jurkat + CHO/OKT3 aAPC (no PD-L1), 5.6 nM is 412 RLU; the IL-2-luciferase RLU, Jurkat + CHO/OKT3 aAPC (no PD-L1), 16.7 nM was 480 RLU; the IL-2-luciferase RLU, Jurkat + CHO/OKT3 aAPC (no PD-L1), 50 nM is 448 RLU. Moreover, in the experiment with PD-L1 (human), the IL-2 release, primary T cells; K562/OKT3/PD-L1; 10 nM was 210 and the IL-2 release, primary T cells; K562/OKT3/PD-L1; 100 nM stood at 2740.

Take “variant CD80 IgV-Fc (inert) E35D/D46V/L85Q (Fc fusion)”: in the experiment with CD28 (human), the IL-2-luciferase RLU, Jurkat + CHO/OKT3/PD-L1 aAPC, 0.6 nM is 611 RLU; the IL-2-luciferase RLU, Jurkat + CHO/OKT3/PD-L1 aAPC, 1.9 nM was found to be 1000 RLU; the IL-2-luciferase RLU, Jurkat + CHO/OKT3/PD-L1 aAPC, 5.6 nM came out at 1490 RLU; the IL-2-luciferase RLU, Jurkat + CHO/OKT3 aAPC (no PD-L1), 5.6 nM was determined as 511 RLU. Besides, in the experiment with CD28 (human), the IL-2-luciferase RLU, Jurkat + CHO/OKT3 aAPC (no PD-L1), 16.7 nM is 554 RLU and the IL-2-luciferase RLU, Jurkat + CHO/OKT3 aAPC (no PD-L1), 50 nM was found to be 720 RLU. Besides, in the experiment with PD-L1 (human), the IL-2 release, primary T cells; K562/OKT3/PD-L1; 10 nM stood at 102 and the IL-2 release, primary T cells; K562/OKT3/PD-L1; 100 nM was 1430.

For “variant CD80 IgV-Fc (inert) E35D/M43L/L70M (Fc fusion)”, in the experiment with CD28 (human), the IL-2-luciferase RLU, Jurkat + CHO/OKT3/PD-L1 aAPC, 0.6 nM stood at 479 RLU; the IL-2-luciferase RLU, Jurkat + CHO/OKT3/PD-L1 aAPC, 1.9 nM came out at 525 RLU; the IL-2-luciferase RLU, Jurkat + CHO/OKT3/PD-L1 aAPC, 5.6 nM was 683 RLU; the IL-2-luciferase RLU, Jurkat + CHO/OKT3/PD-L1 aAPC, 16.7 nM stood at 1070 RLU. In the experiment with CD28 (human), the IL-2-luciferase RLU, Jurkat + CHO/OKT3 aAPC (no PD-L1), 5.6 nM worked out at 396 RLU; the IL-2-luciferase RLU, Jurkat + CHO/OKT3 aAPC (no PD-L1), 16.7 nM was determined as 439 RLU; the IL-2-luciferase RLU, Jurkat + CHO/OKT3 aAPC (no PD-L1), 50 nM was found to be 515 RLU. In the experiment with PD-L1 (human), this substance registered an IL-2 release, primary T cells; K562/OKT3/PD-L1; 10 nM of 52.

Regarding “variant CD80 IgV-Fc (inert) E35D/M47I (Fc fusion)”, in the experiment with CD28 (human), the IL-2-luciferase RLU, Jurkat + CHO/OKT3/PD-L1 aAPC, 0.6 nM stood at 1050 RLU; the IL-2-luciferase RLU, Jurkat + CHO/OKT3/PD-L1 aAPC, 1.9 nM was determined as 1730 RLU; the IL-2-luciferase RLU, Jurkat + CHO/OKT3/PD-L1 aAPC, 5.6 nM was determined as 2790 RLU; the IL-2-luciferase RLU, Jurkat + CHO/OKT3/PD-L1 aAPC, 16.7 nM worked out at 3670 RLU. Besides, in the experiment with CD28 (human), the IL-2-luciferase RLU, Jurkat + CHO/OKT3/PD-L1 aAPC, 50 nM came to 3780 RLU; the IL-2-luciferase RLU, Jurkat + CHO/OKT3 aAPC (no PD-L1), 5.6 nM turned out to be 637 RLU; the IL-2-luciferase RLU, Jurkat + CHO/OKT3 aAPC (no PD-L1), 16.7 nM is 710 RLU; the IL-2-luciferase RLU, Jurkat + CHO/OKT3 aAPC (no PD-L1), 50 nM is 894 RLU. Moreover, in the experiment with PD-L1 (human), the IL-2 release, primary T cells; K562/OKT3/PD-L1; 1 nM turned out to be 244; the IL-2 release, primary T cells; K562/OKT3/PD-L1; 10 nM is 3430; the IL-2 release, primary T cells; K562/OKT3/PD-L1; 100 nM came to 8310.
